Measured values as given in US20100204100A1, “BIOLOGICAL AGENTS ACTIVE IN CENTRAL NERVOUS SYSTEM” (THE JOHNS HOPKINS UNIVERISTY, priority 2007, published 2010).
“Also recorded” adds a separate entry of the source.

What was measured:
cultured spinal neurons = assay: In vitro delivery of Tat fusion peptide in cultured spinal neurons (Western blot, anti-His antibody); assay type: cell-based; conditions: 10 μM peptide, 30 min incubation, cultured mouse spinal neurons
Procedure: In Vitro Delivery of Tat Fusion Peptide in Cultured Spinal Neurons. The intracellular delivery of Tat fusion peptide was assessed by Western blot analysis 30 min after application of 10 μM Tat-PSD-95 PDZ2 to cultured spinal neurons. The same dose of PSD-95 PDZ2 without Tat served as a control. Spinal cord neuronal cultures were prepared as previously described (O'Brien, et al., 1997) with minor modification. In brief, embryonic day 14 mouse spinal cord was digested for 45 min at 34° C. Cells were gently dissociated with a 5-ml pipette, filtered through a 70-μm filter, and centrifuged through a solution of 1% soybean trypsin inhibitor and 1% bovine serum albumin at 80×g for 10 min. High-density cultures were plated at 2 million cells/60-mm dish. Cell lysates from high-density cultures were solubilized in 1% Triton X-100/0.2% sodium dodecyl sulfate (SDS) and subjected to SDS-polyacrylamide gel electrophoresis (SDS-PAGE). Proteins were immunoblotted with monoclonal anti-His antibody (Sigma) and visualized with enhanced chemiluminescence (Amersham Biosciences, Piscataway, N.J.).

[1] = molecular target: T1, interactions between NMDA receptor NR2B and PSD-95 protein (Mus musculus, UniProt Q01097); assay: In vitro binding assay (GST pull-down) with GST-PSD-95 PDZ1,2 and spinal membrane fraction; conditions: for effect on interactions between GST-PSD-95 PDZ1,2 and NR2B (amount of NR2B pulled down): preincubation with different doses of peptide, 30 min; for effect on interactions between NMDAR NR2 subunits and PSD-95: summary of GST pull-down and co-immunoprecipitation (FIG. 2)
T1 construct: from tissue; host or cells: NR2B: solubilized membrane fraction of mouse spinal lumbar enlargement
Procedure: In Vitro and In Vivo Binding Assays. […] Membrane-bound proteins from the spinal lumbar enlargement segments were extracted as described previously (Tao, et al., 2003a). For in vitro binding experiments (GST pull-down), the solubilized membrane fraction and GST fusion peptide were first preincubated with different concentrations of Tat-PSD-95 PDZ2 at room temperature for 30 min. Then the membrane fraction was mixed with the GST fusion peptide at room temperature for 1 h. The resin was washed five times with washing buffer (PBS plus 500 mM NaCl and 0.1% Triton X-100) and then boiled in 1×SDS-PAGE sample buffer to elute the bound proteins. After being separated by electrophoresis, the proteins were detected by immunoblotting with anti-GST antibody (Santa Cruz Biotechnology, Santa Cruz, Calif.) and anti-NR2B antibody (Upstate Biotechnology, Lake Placid, N.Y.). For in vivo binding experiments (co-immunoprecipitation), 5 μg of the affinity-purified rabbit NR2A/2B antibody (Chemicon, Temecula, Calif.) was incubated with 100 μl of protein A-Sepharose slurry for 1 h, and the complex was spun down at 2000 rpm for 4 min. The solubilized membrane fraction (500 μg) from the different groups of treated mice as mentioned-above then was added to the Sepharose beads, and the mixture was incubated for 2-3 h at 4° C. The mixture was washed once with 1% Triton X-100 in immunoprecipitation buffer [containing (in mM): 137 sodium chloride, 2.7 potassium chloride, 4.3 disodium hydrogen phosphate, 1.4 potassium dihydrogen phosphate, 5 ethylene glycol tetraacetic acid, 1 sodium vanadate, 10 sodium pyrophosphate, 50 sodium fluoride, 0.1 phenylmethylsulfonyl fluoride, and 20 U/ml Trasylol], twice with 1% Triton X-100 in immunoprecipitation buffer plus 300 mM sodium chloride, and three times with immunoprecipitation buffer. The proteins were separated by SDS-PAGE and detected by NR2A/2B or PSD-95 antibody (Upstate Biotechnology, Lake Placid, N.Y.). As a positive control (input), 50 μg of the solubilized membrane fraction was loaded onto the gel.

[2] = Baseline paw withdrawal threshold after peptide injection; assay type: in vivo, mouse; conditions: mice without CFA, vs vehicle
Procedure: Behavioral Analysis. Mechanical sensitivity of the mice was measured with von Frey filaments (Stoelting, Wood Dale, Ill.) as described previously (Yang and Gereau, 2003). Mice were placed in Plexiglas testing boxes with a 1×1 cm^2 wire-mesh grid floor and habituated for 3 h before experiments. Each von Frey filament was applied to the mouse hind paw in ascending order until it bent at approximately 30° for about 3 s. The smallest filament that evoked a paw withdrawal response was taken as the mechanical threshold (paw withdrawal threshold). Similar sites were selected for measuring mechanical thresholds in all tested animals, and the thresholds were measured at approximately the same site throughout the experiment for each individual animal. Two to three measurements were made before CFA or fusion peptides injection, and the average was calculated as the baseline. Established inflammatory pain behaviors were induced by intraplantar injection of CFA solution (20 μl, 1 mg/ml). […] The effect of Tat fusion peptide on CFA-induced established inflammatory pain behaviors was expressed as % of baseline.

[3] = Tests for locomotor function (placing, grasping, righting reflexes); assay type: in vivo, mouse; conditions: unanesthetized mice, 4 h after intraperitoneal injection, vs vehicle
From the text: Tests for Locomotor Function. Four hours after intraperitoneal injection of Tat fusion peptides, their effects on locomotor function were examined with the following tests as described previously (Coderre and Van, 1,1994; Tao, et al., 2003a). 1) Placing reflex: The mouse was held with hind limbs slightly lower than forelimbs and the dorsal surface of the hind paws was brought into contact with the edge of a table. The experimenter recorded whether the mouse placed its hind paws on the table surface reflexively; 2) Grasping reflex: The mouse was placed on a wire grid and the experimenter recorded whether the hind paws grasped the wire on contact; and 3) Righting reflex: The mouse was placed on its back on a flat surface and the experimenter noted whether it immediately assumed the normal upright position.
The effects of Tat fusion peptides on locomotor function were examined 4 h after intraperitoneal injection. The following tests were performed as described previously^23. 1) Placing reflex: The mouse was held with hind limbs slightly lower than forelimbs, and the dorsal surface of the hind paws was brought into contact with the edge of a table. The experimenter recorded whether the mouse placed its hind paws on the table surface reflexively; 2) Grasping reflex: The mouse was placed on a wire grid, and the experimenter recorded whether the hind paws grasped the wire on contact.

T1 sequence (Q01097 27-1482, other chains not shown): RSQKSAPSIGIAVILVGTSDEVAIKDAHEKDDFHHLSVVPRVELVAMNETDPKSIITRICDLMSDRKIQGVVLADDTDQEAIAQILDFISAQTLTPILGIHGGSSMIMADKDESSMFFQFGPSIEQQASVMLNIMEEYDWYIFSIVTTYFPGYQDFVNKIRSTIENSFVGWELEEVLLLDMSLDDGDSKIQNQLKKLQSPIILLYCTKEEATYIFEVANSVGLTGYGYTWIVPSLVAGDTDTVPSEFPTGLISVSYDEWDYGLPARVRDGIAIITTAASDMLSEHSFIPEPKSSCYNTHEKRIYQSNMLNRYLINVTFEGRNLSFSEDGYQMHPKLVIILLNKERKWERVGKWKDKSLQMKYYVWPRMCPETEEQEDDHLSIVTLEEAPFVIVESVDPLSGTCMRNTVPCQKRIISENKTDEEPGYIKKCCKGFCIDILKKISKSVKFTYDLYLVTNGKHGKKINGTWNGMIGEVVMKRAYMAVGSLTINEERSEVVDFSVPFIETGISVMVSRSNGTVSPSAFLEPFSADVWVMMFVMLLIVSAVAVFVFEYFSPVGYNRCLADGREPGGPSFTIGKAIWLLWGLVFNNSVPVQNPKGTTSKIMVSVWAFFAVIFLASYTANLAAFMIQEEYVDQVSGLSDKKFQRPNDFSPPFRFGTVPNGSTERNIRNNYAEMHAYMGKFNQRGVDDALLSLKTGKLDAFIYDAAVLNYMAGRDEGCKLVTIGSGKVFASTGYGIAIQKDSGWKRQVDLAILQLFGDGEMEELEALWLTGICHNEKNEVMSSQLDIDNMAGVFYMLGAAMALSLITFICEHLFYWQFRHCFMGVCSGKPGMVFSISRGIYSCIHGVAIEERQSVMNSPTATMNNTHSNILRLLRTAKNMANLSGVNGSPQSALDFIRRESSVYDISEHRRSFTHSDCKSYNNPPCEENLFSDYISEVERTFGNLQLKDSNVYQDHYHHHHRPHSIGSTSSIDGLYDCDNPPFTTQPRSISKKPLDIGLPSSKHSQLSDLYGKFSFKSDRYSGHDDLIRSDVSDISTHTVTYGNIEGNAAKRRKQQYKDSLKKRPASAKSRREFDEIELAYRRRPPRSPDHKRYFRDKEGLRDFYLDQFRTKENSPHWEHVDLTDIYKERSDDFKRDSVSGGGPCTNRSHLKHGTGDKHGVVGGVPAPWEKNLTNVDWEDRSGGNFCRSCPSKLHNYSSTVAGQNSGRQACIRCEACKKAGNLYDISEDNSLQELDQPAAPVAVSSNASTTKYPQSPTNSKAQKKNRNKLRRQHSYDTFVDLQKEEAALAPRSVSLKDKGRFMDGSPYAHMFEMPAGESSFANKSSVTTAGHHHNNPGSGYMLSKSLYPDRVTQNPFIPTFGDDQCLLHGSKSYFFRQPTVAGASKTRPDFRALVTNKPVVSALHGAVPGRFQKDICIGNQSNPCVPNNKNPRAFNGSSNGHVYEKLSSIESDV

Row | Molecule | His-peptide detected in neurons (intracellular delivery), Western blotting with anti-His antibody (cultured spinal neurons) | effect on NR2B being pulled down at high dose ([1]; 16 μg peptide) | effect on interactions between GST-PSD-95 PDZ1,2 and NR2B (amount of NR2B pulled down) [1] | effect on interactions between NMDAR NR2 subunits and PSD-95 [1] | effect on baseline paw withdrawal threshold [2] | effect on locomotor function (placing, grasping, righting reflexes) [3]
1 | Tat-PSD-95 PDZ2: His-tagged fusion peptide: HIV Tat minimal transduction domain (residues 47-57) fused to the second PDZ domain of PSD-95 (protein) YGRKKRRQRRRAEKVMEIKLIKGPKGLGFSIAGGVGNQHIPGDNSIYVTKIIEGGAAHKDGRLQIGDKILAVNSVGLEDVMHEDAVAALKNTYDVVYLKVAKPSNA | detected only; also recorded: only detected | completely prevented | dose-dependently inhibited; also recorded: dose-dependently reduced | markedly disrupted | no significant effect | no effect; also recorded: did not show any effect
2 | mutated Tat-PSD-95 PDZ2: Control fusion peptide: Tat-PSD-95 PDZ2 with three sites critical for NMDAR/PSD-95 interaction mutated (K165T, L170R and H182L) (protein) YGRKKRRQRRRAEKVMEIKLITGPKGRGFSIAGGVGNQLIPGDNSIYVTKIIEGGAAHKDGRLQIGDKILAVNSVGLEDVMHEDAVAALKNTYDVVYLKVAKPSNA | – | – | no effect | no effect | – | –
